# Measured values as given in patent US20030126647A1 (published 2003).
# T1: full-length FIS2 polypeptide (Arabidopsis thaliana, UniProt P0DKJ7 1-813, limits assumed)
# T1 construct: The full-length FIS2 cDNA was cloned into pGBT9 and pGAD424; the vector-encoded fusion domain is not included
# T1 sequence: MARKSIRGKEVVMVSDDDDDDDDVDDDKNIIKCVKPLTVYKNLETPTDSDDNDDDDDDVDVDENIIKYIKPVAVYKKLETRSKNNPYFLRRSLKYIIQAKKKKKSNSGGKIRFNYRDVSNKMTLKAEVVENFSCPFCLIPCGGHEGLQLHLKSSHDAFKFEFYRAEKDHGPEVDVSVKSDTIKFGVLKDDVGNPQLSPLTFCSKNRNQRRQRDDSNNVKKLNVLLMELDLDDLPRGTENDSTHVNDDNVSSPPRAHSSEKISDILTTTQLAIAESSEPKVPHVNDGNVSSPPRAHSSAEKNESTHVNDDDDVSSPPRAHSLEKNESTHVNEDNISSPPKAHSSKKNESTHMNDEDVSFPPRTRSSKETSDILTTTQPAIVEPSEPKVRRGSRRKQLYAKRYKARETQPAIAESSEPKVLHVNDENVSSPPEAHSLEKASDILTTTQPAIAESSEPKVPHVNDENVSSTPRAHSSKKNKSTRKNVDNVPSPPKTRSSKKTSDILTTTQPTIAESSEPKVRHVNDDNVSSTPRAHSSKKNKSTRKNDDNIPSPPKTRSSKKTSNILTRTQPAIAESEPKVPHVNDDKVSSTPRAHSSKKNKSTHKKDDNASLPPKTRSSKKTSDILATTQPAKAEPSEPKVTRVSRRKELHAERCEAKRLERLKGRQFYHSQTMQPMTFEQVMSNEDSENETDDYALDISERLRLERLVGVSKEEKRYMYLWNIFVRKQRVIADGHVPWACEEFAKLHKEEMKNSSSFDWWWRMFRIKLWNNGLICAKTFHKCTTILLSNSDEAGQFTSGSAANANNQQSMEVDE
# B1: full-length FIS3 polypeptide (other)
# chain: MSKITLGNESIVGSLTPSNKKSYKVTNRIQEGKKPLYAVVFNFLDARFFDVFVTAGGNRITLYNCLGDGAISALQSYADEDKEESFYTVSWACGVNGNPYVAAGGVKGIIRVIDVNSETIHKSLVGHGDSVNEIRTQPLKPQLVITASKDESVRLWNVETGICILIFAGAGGHRYEVLSVDFHPSDIYRFASCGMDTTIKIWSMKEFWTYVEKSFTWTDDPSKFPTKFVQFPVFTASIHTNYVDCNRWFGDFILSKSVDNEILLWEPQLKENSPGEGASDVLLRYPVPMCDIWFIKFSCDLHLSSVAIGNQEGKVYVWDLKSCPPVLITKLSHNQSKSVIRQTAMSVDGSTILACCEDGTIWRWDVITK
# notes: The full-length FIS3 cDNA was cloned into pGBT9 and pGAD424; the vector-encoded fusion domain is not included; also called FIE
# B2: full-length FIS1 polypeptide (other)
# chain: MEKENHEDDGEGLPPELNQIKEQIEKERFLHIKRKFELRYIPSVATHASHHQSFDLNQPAAEDDNGGDNKSLLSRMQNPLRHFSASSDYNSYEDQGYVLDEDQDYALEEDVPLFLDEDVPLLPSVKLPIVEKLPRSITWVFTKSSQLMAESDSVIGKRQIYYLNGEALELSSEEDEEDEEEDEEEIKKEKCEFSEDVDRFIWTVGQDYGLDDLVVRRALAKYLEVDVSDILERYNELKLKNDGTAGEASDLTSKTITTAFQDFADRRHCRRCMIFDCHMHEKYEPESRSSEDKSSLFEDEDRQPCSEHCYLKVRSVTEADHVMDNDNSISNKIVVSDPNNTMWTPVEKDLYLKGIEIFGRNSCDVALNILRGLKTCLEIYNYMREQDQCTMSLDLNKTTQRHNQVTKKVSRKSSRSVRKKSRLRKYARYPPALKKTTSGEAKFYKHYTPCTCKSKCGQQCPCLTHENCCEKYCGCSKDCNNRFGGCNCAIGQCTNRQCPCFAANRECDPDLCRSCPLSCGDGTLGETPVQIQCKNMQFLLQTNKKILIGKSDVHGWGAFTWDSLKKNEYLGEYTGELITHDEANERGRIEDRIGSSYLFTLNDQLEIDARRKGNEFKFLNHSARPNCYAKLMIVRGDQRIGLFAERAIEEGEELFFDYCYGPEHADWSRGREPRKTGASKRSKEARPAR
# notes: Expressed in yeast from the two-hybrid vectors pGBT9 and pGAD424, so it was a fusion with the vector-encoded domain; also called MEDEA/FIS1; MEA
# B3: FIS1 deletion mutant Bcl (320 amino acid polypeptide comprising the A and C5 regions only) (other)
# chain: MEKENHEDDGEGLPPELNQIKEQIEKERFLHIKRKFELRYIPSVATHASHHQSFDLNQPAAEDDNGGDNKSLLSRMQNPLRHFSASSDYNSYEDQGYVLDEDQDYALEEDVPLFLDEDVPLLPSVKLPIVEKLPRSITWVFTKSSQLMAESDSVIGKRQIYYLNGEALELSSEEDEEDEEEDEEEIKKEKCEFSEDVDRFIWTVGQDYGLDDLVVRRALAKYLEVDVSDILERYNELKLKNDGTAGEASDLTSKTITTAFQDFADRRHCRRCMIFDCHMHEKYEPESRSSEDKSSLFEDEDRQPCSEHCYLKVRSVTEAD
# notes: Expressed as a yeast two-hybrid vector fusion (pGBT9 / pGAD424); the fusion domain is not included; also called delta-Bcl; truncated FIS1 having the C-terminal 369 amino acids containing the N, CXC and SET domains deleted
# Legend:
# [1] = target: T1, full-length FIS2 polypeptide; assay: yeast two-hybrid (pGBT9 / pGAD424, adenine selection and beta-galactosidase)
# Excerpt: (§1) In particular, the full-length FIS1 cDNA sequence, encoding a 689 amino acid polypeptide comprising the A, C5, N, CXC and SET domains, and the deletion mutants designated: ΔBgl, encoding a 513 amino acid polypeptide and lacking the C-terminal SET domain-encoding region; ΔBcl, encoding a 320 amino acid polypeptide and lacking the C-terminal N, CXC and SET domain-encoding regions; ΔPst, encoding a 62 amino acid polypeptide and lacking the C-terminal portion of FIS1 comprising the five domain-encoding regions; and Δ160, lacking 160 bp at the 5′-end of the FIS1 cDNA, were constructed (FIG. 27). The full-length FIS2 and FIS3 cDNAs were also used. Control constructs, employing the empty vectors pGBT9 and pGAD424, or alternatively the EzA1 cDNA, were also used. Each cDNA was cloned into each vector and yeast were transformed with vectors expressing different FIS polypeptides, in the presence of adenine selection and β-Galactosidase activation, to select for cells expressing from both constructs.
# [2] = target: B2; assay: yeast two-hybrid
# Excerpt: as §1
# yeast two-hybrid = target: the molecule itself; assay: yeast two-hybrid
# Excerpt: as §1
# [3] = target: B1; assay: yeast two-hybrid
# Excerpt: as §1
binding result [1],binding result [2],binding result [3],Binder,binding result (yeast two-hybrid)
no binding,binds,–,B1,–
–,–,–,B2,binds
–,binds,binds,B3,–
